Reference: EP4810515A1 (Shanghai Haiju Biological Technology Co., Ltd., dated 2026)
Substitutions are numbered along the chain they refer to.

T1: human GDF15 recombinant protein (ACRO, GD5-H5149) (human, UniProt Q99988 197-308)
T1 sequence (looked up): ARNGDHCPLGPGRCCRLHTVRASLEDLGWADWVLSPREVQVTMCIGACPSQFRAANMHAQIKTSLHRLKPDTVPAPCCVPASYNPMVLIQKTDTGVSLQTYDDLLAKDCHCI

T2: cynomolgus monkey GDF15 recombinant protein (Kactus, GDF-CM215) (cynomolgus monkey, UniProt G7PWZ3 197-308, limits assumed)
T2 construct: also called cynoGDF-15.hFc; cynoGDF15; not shown: human Fc (hFc)
T2 sequence (looked up): T1 sequence (looked up) with H6R, R21H, A54E, T63M, S64N, I112V

T3: mouse GDF15 recombinant protein (Kactus, GDF-MM215) (mouse, UniProt Q9Z0J7 189-303, limits assumed)
T3 construct: also called mGDF-15.hFc; murine GDF15; not shown: human Fc (hFc)
T3 sequence (looked up): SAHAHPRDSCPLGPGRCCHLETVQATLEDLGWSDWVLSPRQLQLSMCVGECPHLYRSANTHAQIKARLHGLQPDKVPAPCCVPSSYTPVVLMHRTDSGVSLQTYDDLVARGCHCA

B1: G2-CH6 (antibody, human IgG1, kappa, V domains shown)
VH: EVQLRQSGPELVKPGTSMKISCKASAYSFTDYNMNWVKQSHGKNLEWIGLINPYNGGTRYNQNFKGKATITVDRSSTTAYMELLSLTSEDSAIYYCAREVRLGNALDYWGQGTSVTVSS
VL: DIQMTQSPASLSVSVGETVTITCRPSESIYSNLAWYQQKQGKSPQLLVYAATNLADGVPSRFSGSGSGTQYSLKINSLQSEDFGTYYCQHFWGIPWTFGGGTKLEIKR
notes: chimeric: murine variable regions on human IgG1 constant region mutant (LALAGA, -K)
B2: G2-CH9 (antibody, human IgG1, kappa, V domains shown)
VH: EVQLQQSGPELVKPGASMKISCKASGYSFTGYNMNWVKQSQGKNLEWIGLINPYNGGTIYNQKFKGKATLTVDKSSTTAYMELLSLTSEDSAVYYCAREVRLGNAMDYWGQGTSVTVSS
VL: B1 VL with P25A, S28N, Y49S, N76I, E81V, T85S, I94T
notes: as for B1
B3: G2-CH7 (antibody, human IgG1, kappa, V domains shown)
VH: B2 VH with M18L, Q41H, Y54S, T58S, I59S, N61S, T77S, E89K, M106L
VL: B1 VL with P25A, S28N, A55G, V58A, T85S, I94T
notes: as for B1
B4: G2-CH5 (antibody, human IgG1, kappa, V domains shown)
VH: EVLLQQSGPELVKPGASVKIACKASGYTLTDYNLNWVKQSHGKSLEWIGDLNPYNGGIIYNQKFKGKATLTVDKSSSTAYMELRSLTSEDIAVYYCAREGRGGAWFDSWGQGTLVTVSA
VL: DIQMTQSSSSFSVSLGDRVTITCKASEDIYHRLAWYQQKPGNAPRLLISGATSLETGIPSRFSGSGSGKDYALSITSLQTEDVGTYYCQQYWSPPFTFGSGTKLEIKR
notes: as for B1
B5: G2-CH12 (antibody, human IgG1, kappa, V domains shown)
VH: QVQLQQSGAELVKPGASVKLSCKASGYTFTNYDINWVRQRPEQGLEWIGWIFPGDGSTKYNEKFKDKATLTTDTSSSTAYMQLIRLTSEDSAVYFCARILYWGQGTTLTVSS
VL: DNKMTQSPSSMYASLGERVTITCKASQDINSYLSWFQQKPGKSPKTLIYRANKLVDGVPSRFSGSGSGQDYSLTISSLEYEDMGIYHCLQYDEFPYTFGGGTKLEIKR
notes: as for B1
B6: G2-CH16 (antibody, human IgG1, kappa, V domains shown)
VH: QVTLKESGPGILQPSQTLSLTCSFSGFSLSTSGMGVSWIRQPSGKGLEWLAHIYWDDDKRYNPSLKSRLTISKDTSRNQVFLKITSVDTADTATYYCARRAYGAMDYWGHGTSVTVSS
VL: DIVMTQSQKFMSTSVGDRVSVTCKASQNVGTNIAWFQQKPGQSPEALIYSASYRYSGVPDRFTGSGSGTDFTLTISNVQSEDLAEYFCQQYNTYPHTFGGGTKLEIRR
notes: as for B1
B7: G2-CH2 (antibody, human IgG1, kappa, V domains shown)
VH: QVTLKESGPGILQPSQTLSLTCSFSGFSLTISGMGVSWIRQPSGKGLEWLAHIYWDDDKRYNPSLKSRLTISKDTSSNQVFLEITSVDTADTATYYCVRAGWDFFDYWGQGTTLTVSS
VL: B6 VL with I33V, F36Y, E45K, A46G, T93S, H96W, R107K
notes: as for B1
B8: G2-CH3 (antibody, human IgG1, kappa, V domains shown)
VH: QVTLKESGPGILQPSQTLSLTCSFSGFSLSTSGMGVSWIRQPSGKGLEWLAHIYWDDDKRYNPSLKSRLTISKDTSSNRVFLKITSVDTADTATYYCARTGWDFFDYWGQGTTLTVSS
VL: B6 VL with I33V, F36Y, E45K, A46G, S76N, T93S, H96Y, R107K
notes: as for B1
B9: G2-CH14 (antibody, human IgG1, kappa, V domains shown)
VH: QVTLKESGPGILQPSQTLSLTCSFSGFSLSTSGMGVSWIRQPSGKGLEWLALIYWDDDKRYNPSLKSRLTISKDASSNQVFLKITSVDTADTATYYCIQSPWDWFAYWGQGTLVTVSA
VL: EIVLTQSPALMAASPGEKVTITCSVSSSISSSNLHWYQQKSETSPKPWIYGTSNLASGVPVRFSGSGSGTSYSLTISSMEAEDAATYYCQQWSSYPLTFGAGTKLELKR
notes: as for B1
B10: G2-CH1 (antibody, human IgG1, kappa, V domains shown)
VH: QVTLKESGPGILQPSQTLSLTCSFSGFSLSTYGIGVGWIRQPSGKGLEWLAHIWWNNNKYFNTALKSRLTISKDTSNNQVFLKIASVDTADSATYYCARMGYDIMDYWGQGTSVTVSS
VL: DIVMTQSHKFMSTSVGDRVSITCKASQDVNTAVAWYQQKPGQSPKFLIYSSSYRYTGVPDRFTGSGSGTDFTFTISSVQAEDLAVYYCQQHYSTPWTFGGGTKLEIKR
notes: as for B1
B11: G2-CH8 (antibody, human IgG1, kappa, V domains shown)
VH: B10 VH with N57D, F61Y, S92T, M100L, G101A, I104Y, M105V, Y107S, S113T, V114L
VL: DIVMTQAAFSNPVTLGTSASISCRSSKSLLHSNGITYLYWYLQKPGQSPQLLIYQMSNLVSGVPDRFSSSGSGTDFTLRISRVEAEDVGVYYCAQNLELPPTFGAGTKLELKR
notes: as for B1
B12: G2-CH10 (antibody, human IgG1, kappa, V domains shown)
VH: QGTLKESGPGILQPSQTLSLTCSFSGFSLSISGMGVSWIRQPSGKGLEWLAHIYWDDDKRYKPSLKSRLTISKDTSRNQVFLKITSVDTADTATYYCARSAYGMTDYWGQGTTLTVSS
VL: DIQMTQTTSSLSASLGDRVTISCRASQDISNYLNWYQQKPDGTVKLLIHSASNLHSGVPSRFSGSGSGTDYSLTISNLEQEDIATYFCQQYNMFPWTFGGGTKLEIKR
notes: as for B1
B13: G2-CH13 (antibody, human IgG1, kappa, V domains shown)
VH: EVLLQQSGPELVKPGASVKITCKASGYTFTDYNMNWVKQSHGKSLEWIGDINPYNGGIIYNQKFRGKATLTIDKSSSTAYMELRSLTSEDTAVYYCAREVRRGSFFDYWGQGTTLTVSS
VL: DIQMTQSPASLSVSVGETVTITCRASENIYSNLAWYQQKQGKSPQLLVYAATDLADGVPSRFSGSGSGTQYSLKINSLQSEDFGNYHCQLFWGTPTFGGGTKLEIKR
notes: as for B1
B14: G2-CH5-HP1-hIgG1 (LALAGA, -K) (antibody, V domains shown)
VH: B4 VH with G56A
VL: B4 VL
B15: G2-CH5-HP2-hIgG1 (LALAGA, -K) (antibody, V domains shown)
VH: B4 VH with G56Q
VL: B4 VL
B16: G2-CH2-LP1-hIgG1 (LALAGA, -K) (antibody, V domains shown)
VH: B7 VH
VL: B6 VL with I33V, F36Y, E45K, A46G, T93A, H96W, R107K
B17: G2-CH2-LP2-hIgG1 (LALAGA, -K) (antibody, V domains shown)
VH: B7 VH
VL: B6 VL with I33V, F36Y, E45K, A46G, N92E, T93S, H96W, R107K
B18: G2-CH2-LP3-hIgG1 (LALAGA, -K) (antibody, V domains shown)
VH: B7 VH
VL: B6 VL with I33V, F36Y, E45K, A46G, T93Q, H96W, R107K
B19: G2-CH8-LP1-hIgG1 (LALAGA, -K) (antibody, V domains shown)
VH: B10 VH with N57D, F61Y, S92T, M100L, G101A, I104Y, M105V, Y107S, S113T, V114L
VL: B11 VL with G34A
B20: G2-CH8-LP2-hIgG1 (LALAGA, -K) (antibody, V domains shown)
VH: B10 VH with N57D, F61Y, S92T, M100L, G101A, I104Y, M105V, Y107S, S113T, V114L
VL: B11 VL with G34Q
B21: G2-CH8-LP3-hIgG1 (LALAGA, -K) (antibody, V domains shown)
VH: B10 VH with N57D, F61Y, S92T, M100L, G101A, I104Y, M105V, Y107S, S113T, V114L
VL: B11 VL with N33E

Each binder was assayed against T1, human GDF15 recombinant protein (ACRO, …) (assay: cell-based or functional assay).
With B1 the “IC50, luciferase reporter gene cell strain (mGFRAL/RET HEK293) with hGDF15” value (from here on “IC50 … (mGFRAL/RET HEK293) with hGDF15”) was 4.39 nM. B2 was tested, and the “IC50 … (mGFRAL/RET HEK293) with hGDF15” value was 1.42 nM. For B3, the “IC50 … (mGFRAL/RET HEK293) with hGDF15” value was 3.83 nM. In the case of B4, the “IC50 … (mGFRAL/RET HEK293) with hGDF15” value is reported as 3.45 nM. B5 was tested, and the “IC50 … (mGFRAL/RET HEK293) with hGDF15” value was 6.8 nM. For B6, the “IC50 … (mGFRAL/RET HEK293) with hGDF15” value was 0.45 nM. In the case of B7, the “IC50 … (mGFRAL/RET HEK293) with hGDF15” value is reported as 3.24 nM. For B8, the “IC50 … (mGFRAL/RET HEK293) with hGDF15” value was 3.55 nM. In the case of B9, the “IC50 … (mGFRAL/RET HEK293) with hGDF15” value is reported as 0.2 nM. For B10, the “IC50 … (mGFRAL/RET HEK293) with hGDF15” value was 3.75 nM. B11 was tested, and the “IC50 … (mGFRAL/RET HEK293) with hGDF15” value was 3.05 nM. In the case of B12, the “IC50 … (mGFRAL/RET HEK293) with hGDF15” value is reported as 3.4 nM. In the case of B13, the “IC50 … (mGFRAL/RET HEK293) with hGDF15” value is reported as 11.7 nM.

Molecular target: T1, human GDF15 recombinant protein (ACRO, …)
Assay: cell-based or functional assay
Remark: another data set of the same source
For B14, the “IC50, reporter gene cell strain (mGFRAL)” value was 0.18 µg/mL. B15 was tested, and the “IC50, reporter gene cell strain (mGFRAL)” value was 0.142 µg/mL. With B16 the “IC50, reporter gene cell strain (mGFRAL)” value was 0.088 µg/mL. With B17 the “IC50, reporter gene cell strain (mGFRAL)” value was 0.091 µg/mL. With B18 the “IC50, reporter gene cell strain (mGFRAL)” value was 0.093 µg/mL. In the case of B19, the “IC50, reporter gene cell strain (mGFRAL)” value is reported as 0.116 µg/mL. With B20 the “IC50, reporter gene cell strain (mGFRAL)” value was 0.1 µg/mL. For B21, the “IC50, reporter gene cell strain (mGFRAL)” value was 0.081 µg/mL.

The binders below were run against T2, cynomolgus monkey GDF15 recombinant … (assay: ELISA, coated cynoGDF-15.hFc).
Binder B1 has an EC50 of 0.0892 nM. B2 was tested, and the EC50 was 0.097 nM. Work on B3 yielded an EC50 of 0.104 nM. In the case of B4, the EC50 is reported as 0.0929 nM. Binder B5 has an EC50 of 0.211 nM. B6 was tested, and the EC50 was 0.0909 nM. In the case of B7, the EC50 is reported as 0.098 nM. Binder B8 has an EC50 of 0.102 nM. B9 showed an EC50 of 0.0721 nM. B10 gave an EC50 of 0.086 nM. For B11, the EC50 was 0.0934 nM. B12 was tested, and the EC50 was 0.0841 nM. For B13, the EC50 was 0.0654 nM.

These binders were tested against T1, human GDF15 recombinant protein (ACRO, …) (assay: ELISA, coated hGDF-15.His).
B1 showed an EC50 of 0.00434 nM. B2 was tested, and the EC50 was 0.00634 nM. For B3, the EC50 was 0.00552 nM. B4 gave an EC50 of 0.00394 nM. For B5, the EC50 was 0.0106 nM. Work on B6 yielded an EC50 of 0.00476 nM. B7 showed an EC50 of 0.00627 nM. In the case of B8, the EC50 is reported as 0.00453 nM. B9 was tested, and the EC50 was 0.00663 nM. For B10, the EC50 was 0.00387 nM. With B11 the EC50 was 0.00122 nM. For B12, the EC50 was 0.00592 nM. B13 was tested, and the EC50 was 0.00382 nM.

These binders were tested against T3, mouse GDF15 recombinant protein … (assay: ELISA, coated mGDF-15.hFc).
For B1, the EC50 was 0.11 nM. For B2, the EC50 was 0.11 nM. B3 showed an EC50 of 0.12 nM. With B4 the EC50 was 0.12 nM. With B5 the EC50 was 5.64 nM. For B6, the EC50 was 0.32 nM. B7 gave an EC50 of 0.26 nM. With B8 the EC50 was 56.5 nM. B9 showed an EC50 of 0.76 nM. For B10, the EC50 was 0.17 nM. B11 showed an EC50 of 0.37 nM. For B12, the EC50 was 0.25 nM. B13 gave an EC50 of 0.22 nM.
